From article PMC8992277 (ACS Omega, 2022) come the findings set out here.

The target of this assay is T1, Human neuroglobin (human, UniProt Q9NPG2 1-151).
T1 sequence (looked up): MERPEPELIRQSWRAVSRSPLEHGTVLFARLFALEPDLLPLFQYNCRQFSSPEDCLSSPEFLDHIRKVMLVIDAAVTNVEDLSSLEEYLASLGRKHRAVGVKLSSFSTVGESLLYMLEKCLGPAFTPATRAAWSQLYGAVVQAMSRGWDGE
Description: ITC. For orientation: In ITC the heat of successive injections is recorded.

B1: Human cytochrome c I81N variant (natural protein)
chain: not shown
modifications: heme c covalently linked to the peptide chain via two thioether bonds through the CXXCH motif
In the case of B1, the Ka was determined as 5300 M⁻¹; the Kd (usually a measure of binding affinity in units of concentration) is 189 µM; the “dH, fold of that of WT hCyt c binding to Ngb” value is approximately 6 fold.
